Test results as given in patent US20250099379A1, “NEW SYSTEM FOR THE TOPICAL PHARMACOLOGICAL RELEASE OF AN ACTIVE INGREDIENT” (UNIVERSITÀ DEGLI STUDI DI PADOVA, priority 2022, published 2025).

How the values were obtained:
[1] = Release of BSA-FITC from wet silica sol-gel suspended in 3% HPMC hydrogel or buffer (dialysis tubes); format: physicochemical; conditions: BSA-FITC in silica hydrogel (SiO2 8%), equal volume of release buffer or 3% HPMC; PBST+0.1% BSA at 37° C.
Experimental: In a preliminary test it was evaluated if the use of hydrogel of 3% w/v HPMC as diluent for the suspension of silica nanoparticles influences the release of a protein incorporated therein. To this purpose, preparations constituted by silica hydrogel having incorporated the model protein BSA-FITC, suspended in an equal volume of release buffer or t 3% HPMC, were inserted in dialysis tubes (cut-off 100 KDa) and immersed in PBST+0.1% BSA at 37° C. At programmed time points the content of BSA-FITC was quantified in the acceptor solution by fluorescence spectroscopy.

[2] = Release of SB3 from wet silica sol-gel into buffer (ELISA quantification); format: physicochemical; conditions: wet silica sol-gel (8% SiO2 w/w), crushed manually; gels loaded at SB3 5 and 50 μg/mL; immersion in buffer at 37
Experimental: 200 μl of the prepared product containing SB3 in silica hydrogel were suspended in 10 mL of phosphate buffer 100 mM, 0.05% Tween 20, 0.1% BSA, pH 6.0 and incubated at 37° C. under slight stirring. At defined time moments (0 h, 5 h and 24 h) the sample was centrifuged (1390 g) and a small portion of supernatant (250 μl) was removed by titration of SB3 and replaced with fresh buffer. The compound was then re-suspended in the supernatant by a slight vortex and the incubation at 37° C. was continued until the subsequent moment. The concentration of SB3 in the supernatants was quantified by sandwich ELISA (kit HEPA Lisa, Xeptagen S.p.A, Vega Park, Venice) by following the manufacturer's instructions. […] After washing, the concentration of SB3 was detected by incubation with 100 μL of anti-SB3 secondary Ab conjugated with streptavidin HRP (0.5 μg/mL). The plate was developed with a solution of substrate 3,3′,5,5′-tetramethylbenzidin (TMB) ready for use. The reaction was interrupted with 1 mol/L of HCl (100 μL) and the absorbance at 450 nm was measured on a reader of microplates (Victor×3; Perkin Elmer, Waltham, MA, USA). […]

[3] = system: MDCK cells; assay: Scatter assay on MDCK cells; format: cell-based, canine; conditions: solution of release from gel at SB3 50 μg/mL; similar to recombinant SB3 positive control (CTR+)
Experimental: The results were represented graphically by tracing the ratio between the amount of protein released in each time point (Mt) and the total protein (Mtot) incorporated in function of time. The released functional capability of SB3 was verified by scatter assay, as previously reported (Quarta et al. J Pathol 2010; 221:343-356). In detail, canine kidney cells Madin-Darby (MDCK) (5×10^3 cells/well), were treated with two different dilutions of SB3 released by the wet silica microspheres for 5 and 24 hours. The cells were fixed in 4% formaldehyde, coloured with blue solution of Coomassie and the scattering effect was analysed by using the Axiovert 200M microscope (Carl Zeiss Microscopy GmbH, Germania). As positive control, SB3 recombinant at 200 ng/ml was used.

Row | Molecule | Release profiles in presence or absence of HPMC hydrogel [1] | Mechanism of SB3 release (Mt/Mtot % vs square root of time, linear correlation) [2] | Scattering of cohesive cell colonies [3]
1 | BSA-FITC: model protein BSA-FITC incorporated in silica hydrogel | almost superimposable |  | 
2 | SB3: human SerpinB3 protease inhibitor protein, produced recombinantly; incorporated in wet silica sol-gel (8% SiO2) (protein, UniProt P29508 1-390, looked up) Serpin B3: MNSLSEANTKFMFDLFQQFRKSKENNIFYSPISITSALGMVLLGAKDNTAQQIKKVLHFDQVTENTTGKAATYHVDRSGNVHHQFQKLLTEFNKSTDAYELKIANKLFGEKTYLFLQEYLDAIKKFYQTSVESVDFANAPEESRKKINSWVESQTNEKIKNLIPEGNIGSNTTLVLVNAIYFKGQWEKKFNKEDTKEEKFWPNKNTYKSIQMMRQYTSFHFASLEDVQAKVLEIPYKGKDLSMIVLLPNEIDGLQKLEEKLTAEKLMEWTSLQNMRETRVDLHLPRFKVEESYDLKDTLRTMGMVDIFNGDADLSGMTGSRGLVLSGVLHKAFVEVTEEGAEAAAATAVVGFGSSPTSTNEEFHCNHPFLFFIRQNKTNSILFYGRFSSP |  | takes place through a diffusion process | induced the 20 time-depending scattering of strictly cohesive colonies of MDK cells
